The values below come from US20180305695, “DNA APTAMER THAT BINDS TO vWF” (TAGCYX BIOTECHNOLOGIES, published 2018).

The data set has as its target von Willebrand factor A1 domain (Homo sapiens, UniProt P04275 SEQ:1277-1453). In words: EMSA; positive control, gel 4 C; substantially no binding with gel at 25-37 C. The note with it: tags: U-Protein Express V003; label: biotin (SPR). Here is the method: The binding ability of the synthesized DNA aptamers was analyzed via gel shift assay. Specifically, the DNA aptamers (100 nM) and the vWF A1 domain (100 nM, V003, U-Protein) were suspended in 20 μl of a reaction solution (1×PBS, 0.005% Nonidet P-40), and incubated at 37° C. for 30 minutes. Thereafter, 25% glycerol containing bromophenol blue was added to be a final concentration of glycerol to 5% therein, the resultant was subjected to 8% nondenaturing polyacrylamide gel electrophoresis at 4° C., and the DNA aptamers bound to the vWF A1 domain were separated from the free DNA aptamers. Thereafter, the DNA aptamers were stained with SYBR Gold (Thermo Fisher Scientific) diluted 1/20,000-fold with the 1×TBE solution and detected by a bioimage analyzer (LAS-4000, Fujifilm Corporation). The percentage of gel shifting was determined by dividing the amount of the complex by the amount of the free form and the complex, each deduced based on a band and expressing the determined value in a percentage figure.
Gel shift assay was carried out in the same manner as in Example 3, except that electrophoresis was carried out at 4° C. and 300 V, 25° C. and 40 W, and 37° C. and 40 W.
And the activity of vWF2-DsAA (o) and vWF2-AADs (p) were decreased in comparison with vWF2-DsDsDs (m).

GGCGTGCAGTGCCTTCGGCCGTGCGGTGCCTCCGTCACGCC (ssDNA) [ARC1172]: the binding result was “binds”.
